According to patent US20190389966A1 (Regeneron, published 2019):

Target: T1, MUC16 on OVCAR-3 cells (human, UniProt Q8WXI7 1-14507)
T1 construct: whole, on cells; also called Mucin 16
Experiment: FACS binding to OVCAR-3 cells

binding result: binds
B1: BSMUC16/CD3-001 (bispecific antibody, V domains shown)
VH 1: QVQLVESGGGLVKPGGSLRLSCAASGFTFSNYYMSWVRQAPGKGLEWISYISGRGSTIFYADSVKGRITISRDNAKNSLFLQMNSLRAEDTAVYFCVKDRGGYSPYWGQGTLVTVSS
VH 2: EVQLVESGGGLVQPGRSLRLSCAASGFTFDDYSMHWVRQAPGKGLEWVSGISWNSGSKGYADSVKGRFTISRDNAKNSLYLQMNSLRAEDTALYYCAKYGSGYGKFYHYGLDVWGQGTTVTVSS
VL: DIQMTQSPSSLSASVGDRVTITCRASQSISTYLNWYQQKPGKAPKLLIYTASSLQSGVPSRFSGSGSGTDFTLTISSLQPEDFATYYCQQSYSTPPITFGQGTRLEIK
notes: It was biotinylated in the ELISA and DFO/89Zr-labelled at Gln 295 for PET; also called anti-MUC16xCD3 bispecific antibody; BSMUC16/CD3-0001
